We go through six molecules from paper PMC8151509.

Substitutions are numbered along the chain they refer to. Names may count otherwise.

Assay [1] addresses C1qCLR_nc2 (wild type, devoid of the additional GPP triplets), P02745;P02747. Nature of the assay: SPR. The note with it: chain shown with the change; immobilized C1qCLR_nc2; parent: est. 100; read off a plot.
The target in assay [2] is C1qstem_nc2, P02745;P02746. Nature of the assay: SPR. The following applies: chain shown with the change; immobilized C1qstem_nc2; parent: est. 100; read off a plot.
Chain of C1qstem_nc2, P02745;P02746 (chain, as listed by the source, chain 1 of 3): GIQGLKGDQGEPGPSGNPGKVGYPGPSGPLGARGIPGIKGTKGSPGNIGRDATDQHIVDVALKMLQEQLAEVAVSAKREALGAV
Chain of C1qstem_nc2, P02745;P02746 (chain, as listed by the source, chain 2 of 3): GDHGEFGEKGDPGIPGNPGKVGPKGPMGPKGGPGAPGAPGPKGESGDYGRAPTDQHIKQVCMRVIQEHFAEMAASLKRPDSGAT
Chain of C1qstem_nc2, P02745;P02746 (chain, as listed by the source, chain 3 of 3): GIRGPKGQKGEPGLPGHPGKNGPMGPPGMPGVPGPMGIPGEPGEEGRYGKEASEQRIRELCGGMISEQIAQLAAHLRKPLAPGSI
The target of assay [3] is C1qCLR_nc2 (wild type, devoid of the additional GPP triplets) (UniProt P02745). In words: SPR; LAIR-1 Ig-like domain injected at increasing concentrations (4-128, 4-256 or 3.125-400 µM) over immobilized C1q, rC1q variants, C1qCLR_nc2 variants or C1qstem_nc2 (CM5, amine coupling); 25 °C; 50 mM Tris, 150 mM NaCl, 2 mM CaCl2, 0.05% surfactant P20, pH 7.5; KD from Req versus concentration, steady-state model. (In SPR one partner is held on a chip, and binding of the other changes the refractive index at the surface.)

Another assay concerns the target C1qCLR_nc2 A_R72E (UniProt P02745). The assay is described as above.
The next assay has as its target C1qCLR_nc2 B_K65E (UniProt P02745). Described as above.
The target of a further assay is C1qstem_nc2 (UniProt P02745). Described as above.

Chain of C1qCLR_nc2 (wild type, devoid of the additional GPP triplets), P02745;P02747 (chain, as listed by the source, chain 1 of 3): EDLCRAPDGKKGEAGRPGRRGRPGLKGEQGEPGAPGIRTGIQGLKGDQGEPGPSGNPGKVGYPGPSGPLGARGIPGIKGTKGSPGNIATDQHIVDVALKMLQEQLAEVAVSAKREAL
Chain of C1qCLR_nc2 (wild type, devoid of the additional GPP triplets), P02745;P02747 (chain, as listed by the source, chain 2 of 3): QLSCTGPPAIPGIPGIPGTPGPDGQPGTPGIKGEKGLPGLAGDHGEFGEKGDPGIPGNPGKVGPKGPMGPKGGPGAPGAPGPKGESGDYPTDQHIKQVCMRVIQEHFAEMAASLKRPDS
Chain of C1qCLR_nc2 (wild type, devoid of the additional GPP triplets), P02745;P02747 (chain, as listed by the source, chain 3 of 3): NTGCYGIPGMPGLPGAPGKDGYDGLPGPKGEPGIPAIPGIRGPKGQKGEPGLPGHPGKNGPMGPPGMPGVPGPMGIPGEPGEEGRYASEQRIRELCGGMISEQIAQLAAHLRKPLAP

B1: LAIR-1 Ig-like domain, wild type, Q6GTX8 P107R (protein)
chain: QEEDLPRPSISAEPGTVIPLGSHVTFVCRGPVGVQTFRLERDSRSTYNDTEDVSQASPSESEARFRIDSVREGNAGLYRCIYYKPRKWSEQSDYLELLVKE
In the case of B1, the figures for the percent of parent (% of LAIR-1 WT binding) in assay [1] and in assay [2] were 60 and 69, respectively.

B2: LAIR-1 Ig-like domain, wild type, Q6GTX8 E61A (protein)
chain: B1 chain with E40A, R86P
With B2, the percent of parent (% of LAIR-1 WT binding) in assay [1] was 11; in assay [2], 6.

B3: LAIR-1 Ig-like domain, wild type, Q6GTX8 I102L (protein)
chain: B1 chain with I81L, R86P
Take B3: the results for the percent of parent (% of LAIR-1 WT binding) in assay [1] and in assay [2] were 21 and 20, respectively.

B4: LAIR-1 Ig-like domain, wild type (domain or fragment)
chain: B1 chain with R86P
Turning to B4, the Kd (usually the concentration at which binding is half-saturated) in assay [3] was 179 µM; in the assay with C1qCLR_nc2 A_R72E, 295 µM; in the assay with C1qCLR_nc2 B_K65E it was 189 µM; with C1qstem_nc2, 175 µM.

B5: LAIR-1 Ig-like domain, wild type, Q6GTX8 E72K (protein)
chain: B1 chain with E51K, R86P
B5: the percent of parent (% of LAIR-1 WT binding) in assay [1] and in assay [2] was 21 in each case.

B6: LAIR-1 Ig-like domain, wild type, Q6GTX8 E111K (protein)
chain: B1 chain with R86P, E90K
For the molecule B6, the percent of parent (% of LAIR-1 WT binding) in assay [1] was 36; in assay [2], 34.
